Here are results for two substances from publication doi:10.1101/2023.05.22.541748.

One assay has as its target Ubc13 (UniProt P61088). The experiment in a line: NMR titration.
For a further assay, the target named is Ubc13 C87K/K92T/K94Q (UniProt P61088). Put plainly: NMR.
Ubc13 C87K/K92T/K94Q, sequence (P61088 whole entry C87K/K92T/K94Q): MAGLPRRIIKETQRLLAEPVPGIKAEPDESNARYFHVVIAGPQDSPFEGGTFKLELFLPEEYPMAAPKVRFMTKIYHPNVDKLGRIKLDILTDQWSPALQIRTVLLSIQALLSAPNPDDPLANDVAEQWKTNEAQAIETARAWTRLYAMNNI

Ubc13, sequence (P61088 whole entry): as the sequence (P61088 whole entry C87K/K92T/K94Q) above, with K87C, T92K, Q94K counted along it

Broadly, the Kd is a measure of binding affinity in units of concentration. As to “RNF38 RING domain (residues 387-465) (domain or fragment)”, the Kd with Ubc13 amounted to 55 µM.
In the assay with Ubc13 C87K/K92T/K94Q, “ubiquitin (wild type, Q40Ub) (from UniProt P0CG48 1-76) (natural protein)” returned a population of the closed state of the conjugate of 60% and a population of the closed state of the conjugate with RNF38 RING of 80%.
